Substitutions are numbered along the chain they refer to. Blank lines part the entries; values can stand above or below the binder they belong to.
Experiments:
[1] = target: T1, mouse serum albumin (MSA, Sigma-Aldrich) (mouse, UniProt P07724 25-608); assay: BIAcore, MSA on CM5 chip
T1 construct: also called mouse albumin
Procedure: (§1) FIG. 22. BIAcore analysis for binding of DOM0100-AlbudAb in-line fusions to mouse serum albumin (MSA). MSA (Sigma-Aldrich) was coated on a BIAcore CM5 chip using EDC/NHS chemistry according to manufacturer's instructions. Subsequently, the DMS constructs, each consisting N-terminally to C-terminally of an anti-TNFR1 dAb-Linker-AlbudAb and identified in Table 6, were injected at 1 μM over the MSA surface and binding was monitored. […] The corresponding BIAcore trace for each DMS clone is indicated with an arrow.
After expression and purification, all constructs were tested on the BIAcore for binding to both mouse and human serum albumin. The off-rates were determined and used to discriminate between the AlbudAbs for their suitability in prolonging the half-life of the fusion molecule. Whereas the linker had little influence on the affinity of the AlbudAb for albumin, a significant difference existed between the dAbs and their albumin affinity. The best AlbudAb for mouse binding was DOM7h-11-15 followed by DOM7m-16 and DOM7h-11-12 (FIG. 22).

[2] = target: T2, human TNFR1 on MRC-5 cells (human, UniProt P19438 30-455); assay: cell-based or functional assay
T2 sequence (looked up): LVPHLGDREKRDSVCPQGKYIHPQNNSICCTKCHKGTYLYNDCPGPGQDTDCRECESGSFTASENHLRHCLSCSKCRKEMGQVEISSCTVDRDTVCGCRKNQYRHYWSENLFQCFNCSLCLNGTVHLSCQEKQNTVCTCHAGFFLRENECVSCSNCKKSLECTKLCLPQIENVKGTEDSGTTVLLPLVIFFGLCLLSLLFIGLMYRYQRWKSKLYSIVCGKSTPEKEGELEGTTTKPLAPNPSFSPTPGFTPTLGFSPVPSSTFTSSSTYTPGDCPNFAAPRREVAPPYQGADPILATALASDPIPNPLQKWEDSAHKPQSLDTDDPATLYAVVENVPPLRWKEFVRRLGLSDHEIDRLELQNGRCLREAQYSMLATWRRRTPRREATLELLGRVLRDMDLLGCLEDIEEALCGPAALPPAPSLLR

[3] = target: T3, human serum albumin (HSA, Sigma-Aldrich) (human, UniProt P02768 25-609); assay: BIAcore, HSA on CM5 chip
T3 construct: also called human albumin
Procedure: as §1, with “23.” for “22.”, “human” for “mouse”, “(HSA). HSA” for “(MSA). MSA”, “HSA” for “MSA”

[4] = target: T4, human TNFR1 (recombinant, R&D Systems cat no. 636-R1/CF, biotinylated) (human, UniProt P19438 30-211, limits assumed, biotinylated with EZ-Link NHS-LC-LC-biotin); assay: BIAcore, TNFR1 (species not given, taken as human)
T4 construct: it is not tied to the BIAcore reagent; also called p55; hTNFR1
T4 sequence (looked up): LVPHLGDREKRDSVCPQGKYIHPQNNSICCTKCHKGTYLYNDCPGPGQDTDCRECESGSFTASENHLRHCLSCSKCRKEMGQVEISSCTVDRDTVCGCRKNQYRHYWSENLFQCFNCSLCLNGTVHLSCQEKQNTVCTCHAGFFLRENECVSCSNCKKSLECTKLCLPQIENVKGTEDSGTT

[5] = target: T5, mouse TNFR1 on L929 cells (mouse, UniProt P25118 30-454); assay: cell-based or functional assay
T5 sequence (looked up): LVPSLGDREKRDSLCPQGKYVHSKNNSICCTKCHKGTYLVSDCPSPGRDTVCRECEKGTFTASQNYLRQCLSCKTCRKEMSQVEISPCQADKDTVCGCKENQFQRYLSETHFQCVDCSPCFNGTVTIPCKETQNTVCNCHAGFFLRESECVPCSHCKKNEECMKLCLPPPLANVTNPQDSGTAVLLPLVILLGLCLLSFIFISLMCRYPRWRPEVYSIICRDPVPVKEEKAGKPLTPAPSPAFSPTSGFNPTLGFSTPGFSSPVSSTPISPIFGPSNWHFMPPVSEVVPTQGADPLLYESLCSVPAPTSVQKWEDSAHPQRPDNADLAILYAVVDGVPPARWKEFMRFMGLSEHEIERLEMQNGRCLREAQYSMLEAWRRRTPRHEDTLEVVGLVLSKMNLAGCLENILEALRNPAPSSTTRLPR

[6] = target: T2, human TNFR1 on MRC-5 cells; assay: cell-based or functional assay; remark: listed apart in the source
[7] = target: T5, mouse TNFR1 on L929 cells; assay: cell-based or functional assay; remark: listed apart in the source
[8] = target: T2, human TNFR1 on MRC-5 cells; assay: cell-based or functional assay; remark: listed apart in the source
[9] = target: T6, Cynomologus monkey TNFR1 on CYNOM-K1 cells (Cynomolgus monkey, UniProt Q2PFV5 30-455); assay: cell-based or functional assay
T6 sequence: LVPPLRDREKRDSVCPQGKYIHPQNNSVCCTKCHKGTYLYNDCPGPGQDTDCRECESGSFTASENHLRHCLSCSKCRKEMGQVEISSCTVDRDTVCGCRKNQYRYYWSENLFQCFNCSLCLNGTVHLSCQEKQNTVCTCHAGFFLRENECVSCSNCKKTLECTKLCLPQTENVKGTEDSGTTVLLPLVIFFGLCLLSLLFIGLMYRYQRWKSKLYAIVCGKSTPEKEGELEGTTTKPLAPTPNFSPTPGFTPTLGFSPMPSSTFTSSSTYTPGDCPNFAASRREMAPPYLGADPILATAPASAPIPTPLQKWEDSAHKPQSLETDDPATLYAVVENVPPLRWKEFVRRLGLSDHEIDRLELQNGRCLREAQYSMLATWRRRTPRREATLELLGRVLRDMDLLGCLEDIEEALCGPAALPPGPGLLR

[10] = target: T4, human TNFR1 (recombinant, R&D Systems …); assay: BIAcore, human TNFR1 on SA chip
Excerpt: (§2) BIAcore was done to determine the association and dissociation rates of the different dAbs and in that way establish their binding affinity for both human and mouse TNFR1. Experiments were done using biotinylated TNFR1 (R&D Systems), of the respective species, coupled to streptavidin-coated BIAcore chips followed by injection of a concentration range of the dAbs.

[11] = target: T2, human TNFR1 on MRC-5 cells; assay: cell-based or functional assay; remark: listed apart in the source
[12] = target: T4, human TNFR1 (recombinant, R&D Systems …); assay: BIAcore T100, biotinylated human TNFR1 on chip
Procedure: Furthermore, the affinity and potency of the purified fusion molecules were determined using a BIAcore T100 and the MRC5 cell assay, respectively. The BIAcore T100 is a highly sensitive BIAcore version ideally suited for determination of high affinity binders (Papalia et al., Anal Biochem. 359, p 112 (2006)). Biotinylated, human TNFR1 was coated on the chip and each of the twelve AlbudAb fusions were passed over this surface at four different concentrations (2, 10, 50 and 250 nM). […] This improvement is observed regardless of the AlbudAb used for pairing and largest for the pairings with DOM7h-14-18. A second experiment used to establish if the different pairings affected the functional activity of the anti-TNFR1 dAb was the MRC5 cell assay (Table 8). A more marked difference between the pairings is observed in the MRC5 assay, in which the best potencies are observed in pairings with DOM7h-11-3 and DOM7h-11-12 while pairings with DOM7h-14-10 (DMS0117) lead to significant decreases in potency.

[13] = target: T7, mouse TNFR1 (recombinant, R&D Systems cat no. 425-R1-050/CF, biotinylated) (mouse, UniProt P25118 22-212, biotinylated with EZ-Link NHS-LC-LC-biotin); assay: BIAcore, mouse TNFR1 on SA chip
T7 construct: also called murine TNFR1; biotinylated mouse TNFR1
T7 sequence (looked up): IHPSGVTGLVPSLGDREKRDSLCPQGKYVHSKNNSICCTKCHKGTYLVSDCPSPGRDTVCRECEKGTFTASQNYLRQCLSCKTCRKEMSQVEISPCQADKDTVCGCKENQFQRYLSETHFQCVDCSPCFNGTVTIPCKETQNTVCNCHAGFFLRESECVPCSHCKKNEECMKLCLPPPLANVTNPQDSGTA
Excerpt: as §2

T3 sequence (P02768 25-609 limits assumed): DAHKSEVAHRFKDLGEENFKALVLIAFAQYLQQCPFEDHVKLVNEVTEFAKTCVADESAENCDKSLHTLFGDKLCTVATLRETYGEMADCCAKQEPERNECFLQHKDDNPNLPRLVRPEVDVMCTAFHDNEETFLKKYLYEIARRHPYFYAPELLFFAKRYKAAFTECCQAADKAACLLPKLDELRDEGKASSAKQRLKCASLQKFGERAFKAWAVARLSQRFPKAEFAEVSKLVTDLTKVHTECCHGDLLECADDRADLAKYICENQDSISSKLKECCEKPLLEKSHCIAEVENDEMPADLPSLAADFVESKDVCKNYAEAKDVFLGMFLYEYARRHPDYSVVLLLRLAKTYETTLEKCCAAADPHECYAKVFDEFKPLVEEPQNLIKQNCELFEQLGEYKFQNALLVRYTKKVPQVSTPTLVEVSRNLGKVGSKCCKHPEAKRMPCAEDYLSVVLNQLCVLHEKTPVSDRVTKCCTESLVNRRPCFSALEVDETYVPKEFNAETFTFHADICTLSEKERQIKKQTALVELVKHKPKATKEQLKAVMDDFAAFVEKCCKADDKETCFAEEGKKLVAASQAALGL

- koff [1]: 0.08 s⁻¹
- ND50 (MRC5) [2]: 17 nM
- koff [3]: 0.12 s⁻¹
B1: DMS0188 (bispecific antibody)
chain: EVQLLESGGGLVQPGGSLRLSCAASGFTFVKYSMGWVRQAPGKGPEWVSQISNTGDRTYYADSVKGRFTISRDNSKNTLYLQMNSLRAEDTAVYYCAIYTGRWEPFDYWGQGTLVTVSSASTSGPSDIQMTQSPSSLSASVGDRVTITCRASRPIGTMLSWYQQKPGKAPKLLILFGSRLQSGVPSRFSGSGSGTDFTLTISSLQPEDFATYYCAQAGTHPTTFGQGTKVEIKRAAAEQKLISEEDLN
notes: anti-TNFR1 dAb / AlbudAb in-line fusion

- koff [1]: 0.0062 s⁻¹
- ND50 (MRC5) [2]: 12 nM
- koff [3]: 0.0024 s⁻¹
B2: DMS0163 (bispecific antibody)
chain: B1 chain with F176A, G177F
notes: as for B1

- koff [1]: 0.72 s⁻¹
- ND50 (MRC5) [2]: 19 nM
- koff [3]: 0.16 s⁻¹
B3: DMS0184 (bispecific antibody)
chain: EVQLLESGGGLVQPGGSLRLSCAASGFTFVKYSMGWVRQAPGKGPEWVSQISNTGDRTYYADSVKGRFTISRDNSKNTLYLQMNSLRAEDTAVYYCAIYTGRWEPFDYWGQGTLVTVSSASTSGPSDIQMTQSPSSLSASVGDRVTITCRASRPIGTTLSWYQQKPGKAPKLLIWFGSRLQSGVPSRFSGSGSGTDFTLTISSLQPEDFATYYCAQAGTHPTTFGQGTKVEIKR
notes: as for B1

- Kd [4]: 0.25 nM
- koff [4]: 4.6e-05 s⁻¹
- kon [4]: 190000 M⁻¹ s⁻¹
- L929 ND50 [5]: 6.8 nM
- MRC5 ND50 [6]: 1.04 nM
B4: DMS0132 (bispecific antibody)
chain: EVQLLESGGGLVQPGGSLRLSCAASGFTFVKYSMGWVRQAPGKGLEWVSQISDTADRTYYAHSVKGRFTISRDNSKNTLYLQMNSLRAEDTAVYYCAIYTGRWVPFEYWGQGTLVTVSSASTDIQMTQSPSSLSASVGDRVTITCRASRPIGTTLSWYQQKPGKAPKLLILWNSRLQSGVPSRFSGSGSGTDFTLTISSLQPEDFATYYCAQAGTHPTTFGQGTKVEIKR
notes: as for B1

- Kd [4]: 0.2 nM
- koff [4]: 3.6e-05 s⁻¹
- kon [4]: ~180000 M⁻¹ s⁻¹
- L929 ND50 [5]: 4.2 nM
- MRC5 ND50 [6]: 0.99 nM
B5: DMS0133 (bispecific antibody)
chain: B4 chain with V30F, V104A
notes: as for B1

- Kd [4]: 0.26 nM
- koff [4]: 4.9e-05 s⁻¹
- kon [4]: 190000 M⁻¹ s⁻¹
- L929 ND50 [5]: 5.8 nM
- MRC5 ND50 [6]: 0.96 nM
B6: DMS0134 (bispecific antibody)
chain: B4 chain with V30F
notes: as for B1

- Mouse L929 ND50 [7]: 46 nM
- Human MRC5 ND50 [8]: 2.7 nM
- Cynomologus CYNOM-K1 ND50 [9]: 2.3 nM
- Kd [10]: 0.35 nM
- koff [10]: 8.4e-05 s⁻¹
- kon [10]: 250000 M⁻¹ s⁻¹
- MRC5 (ND50 in nM) [11]: 2.7 nM
- Kd [12]: 0.53 nM
- koff [12]: 0.00011 s⁻¹
- kon [12]: 200000 M⁻¹ s⁻¹
- Kd [13]: 6.9 nM
- koff [13]: 0.00068 s⁻¹
- kon [13]: 100000 M⁻¹ s⁻¹
B7: DOM1h-574-72 (other)
VH: EVQLLESGGGLVQPGGSLRLSCAASGFTFVKYSMGWVRQAPGKGLEWVSQISNTADRTYYAHSVKGRFTISRDNSKNTLYLQMNSLRAEDTAVYYCAIYTGRWVPFEYWGQGTLVTVSS
notes: VH dAb; expressed in E. coli, purified on Protein A

- Mouse L929 ND50 [7]: 67 nM
- Human MRC5 ND50 [8]: 2.1 nM
- Cynomologus CYNOM-K1 ND50 [9]: 1.6 nM
- Kd [10]: 0.18 nM
- koff [10]: 4.3e-05 s⁻¹
- kon [10]: 240000 M⁻¹ s⁻¹
- Kd [13]: 3.7 nM
- koff [13]: 0.00033 s⁻¹
- kon [13]: 110000 M⁻¹ s⁻¹
B8: DOM1h-574-155 (other)
VH: B7 VH with V30L, N53D
notes: VH dAb

- koff [1]: 0.08 s⁻¹
- ND50 (MRC5) [2]: 20 nM
- koff [3]: 0.12 s⁻¹
B9: DMS0186 (bispecific antibody)
chain: EVQLLESGGGLVQPGGSLRLSCAASGFTFVKYSMGWVRQAPGKGPEWVSQISNTGDRTYYADSVKGRFTISRDNSKNTLYLQMNSLRAEDTAVYYCAIYTGRWEPFDYWGQGTLVTVSSASTDIQMTQSPSSLSASVGDRVTITCRASRPIGTMLSWYQQKPGKAPKLLILFGSRLQSGVPSRFSGSGSGTDFTLTISSLQPEDFATYYCAQAGTHPTTFGQGTKVEIKRAAAEQKLISEEDLN
notes: as for B1

— US20120107330A1 (published 2012)
